In PMC2885444:

Key:
[1] = molecular target: CHD4 PHD2 finger, wild type (UniProt Q14839); assay: other fluorescence titration + NMR titration
[2] = molecular target: CHD4 PHD2 finger, wild type (UniProt Q14839); assay: other fluorescence titration
CHD4 PHD2 finger C460W = CHD4 PHD2 finger C460W (UniProt Q14839); assay: NMR titration
CHD4 PHD2 finger E447A = CHD4 PHD2 finger E447A (UniProt Q14839); assay: NMR titration

| Substance | Kd [1] [µM] | Kd [2] [µM] | other results |
| --- | --- | --- | --- |
| H3K9ac peptide (20-mer) |  | 0.6 |  |
| histone H3 peptide in which the primary amino group of Ala1 was acetylated | 400 |  |  |
| unmodified H3 peptide (12-mer histone tail peptide) |  |  | Kd (CHD4 PHD2 finger C460W): 3700 µM; Kd (CHD4 PHD2 finger E447A): 900 µM |

More lines, main results first:

| Kd [1] [µM] | Kd [2] [µM] | Substance | other results |
| --- | --- | --- | --- |
| 300 |  | H3K4me1 peptide (affinity measurements) |  |
| 1000 |  | H3K4me2 peptide (affinity measurements) |  |
|  | 0.9 | H3K9me3 peptide (12-mer histone tail peptide) |  |
